Laboratory results as given in patent US20230272064A1.

Key:
[1] = molecular target: recombinant human TIGIT extracellular membrane protein with a C-terminal histidine tag (human) (UniProt Q495A1); test: competitive ELISA, TIGIT-His coated, competitor fixed biotin-CD155-Fc (signal), mAb at 0.312 µg/mL
[2] = molecular target: recombinant human TIGIT extracellular membrane protein with a C-terminal histidine tag (human) (UniProt Q495A1); test: competitive ELISA, TIGIT-His coated, competitor fixed biotin-CD155-Fc (signal), mAb at 0.010 µg/mL
[3] = molecular target: recombinant human TIGIT extracellular membrane protein with a C-terminal histidine tag (human) (UniProt Q495A1); test: competitive ELISA, TIGIT-His coated, competitor fixed biotin-CD155-Fc (signal), mAb at 0.625 µg/mL
[4] = molecular target: recombinant human TIGIT extracellular membrane protein with a C-terminal histidine tag (human) (UniProt Q495A1); test: competitive ELISA, TIGIT-His coated, competitor fixed biotin-CD155-Fc (signal), mAb at 5 µg/mL
[5] = molecular target: recombinant human TIGIT extracellular membrane protein with a C-terminal histidine tag (human) (UniProt Q495A1); test: competitive ELISA, TIGIT-His coated, competitor fixed biotin-CD155-Fc (signal), mAb at 0.039 µg/mL
[6] = molecular target: recombinant human TIGIT extracellular membrane protein with a C-terminal histidine tag (human) (UniProt Q495A1); test: competitive ELISA, TIGIT-His coated, competitor fixed biotin-CD155-Fc (signal), mAb at 0.078 µg/mL
[7] = molecular target: recombinant human TIGIT extracellular membrane protein with a C-terminal histidine tag (human) (UniProt Q495A1); test: competitive ELISA, TIGIT-His coated, competitor fixed biotin-CD155-Fc (signal), mAb at 0.156 µg/mL
[8] = molecular target: recombinant human TIGIT extracellular membrane protein with a C-terminal histidine tag (human) (UniProt Q495A1); test: competitive ELISA, TIGIT-His coated, competitor fixed biotin-CD155-Fc (signal), mAb at 10 µg/mL
[9] = molecular target: recombinant human TIGIT extracellular membrane protein with a C-terminal histidine tag (human) (UniProt Q495A1); test: competitive ELISA, TIGIT-His coated, competitor fixed biotin-CD155-Fc (signal), mAb at 1.25 µg/mL
[10] = molecular target: recombinant human TIGIT extracellular membrane protein with a C-terminal histidine tag (human) (UniProt Q495A1); test: competitive ELISA, TIGIT-His coated, competitor fixed biotin-CD155-Fc (signal), mAb at 2.5 µg/mL
[11] = molecular target: recombinant human TIGIT extracellular membrane protein with a C-terminal histidine tag (human) (UniProt Q495A1); test: competitive ELISA, TIGIT-His coated, competitor fixed biotin-CD155-Fc (signal), mAb at 0.019 µg/mL
[12] = molecular target: recombinant human TIGIT extracellular membrane protein with a C-terminal histidine tag (human) (UniProt Q495A1); test: competitive ELISA, TIGIT-His coated, competitor fixed biotin-CD155-Fc (signal), mAb at 0.005 µg/mL

Sequence of recombinant human TIGIT extracellular membrane protein with a C-terminal histidine tag (human) (Q495A1 22-141): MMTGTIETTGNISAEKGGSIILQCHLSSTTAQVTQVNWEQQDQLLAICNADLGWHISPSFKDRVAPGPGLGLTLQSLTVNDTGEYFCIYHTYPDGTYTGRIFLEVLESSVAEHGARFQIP

OD at 492 nm [1]: 1.03 OD
OD at 492 nm [2]: 1.1 OD
OD at 492 nm [3]: 1.06 OD
OD at 492 nm [4]: 1.1 OD
OD at 492 nm [5]: 1.05 OD
OD at 492 nm [6]: 1.05 OD
OD at 492 nm [7]: 1.05 OD
OD at 492 nm [8]: 1.11 OD
OD at 492 nm [9]: 1.08 OD
OD at 492 nm [10]: 1.07 OD
OD at 492 nm [11]: 1.08 OD
OD at 492 nm [12]: 1.11 OD
Substance: anti-VEGF monoclonal antibody hPV19
